The target of this test is mouse PRLR on HEK293 cells (mouse) (UniProt Q08501). Nature of the test: FACS, HEK293/mPRLR cells.
Sequence of mouse PRLR on HEK293 cells (mouse) (Q08501 20-608): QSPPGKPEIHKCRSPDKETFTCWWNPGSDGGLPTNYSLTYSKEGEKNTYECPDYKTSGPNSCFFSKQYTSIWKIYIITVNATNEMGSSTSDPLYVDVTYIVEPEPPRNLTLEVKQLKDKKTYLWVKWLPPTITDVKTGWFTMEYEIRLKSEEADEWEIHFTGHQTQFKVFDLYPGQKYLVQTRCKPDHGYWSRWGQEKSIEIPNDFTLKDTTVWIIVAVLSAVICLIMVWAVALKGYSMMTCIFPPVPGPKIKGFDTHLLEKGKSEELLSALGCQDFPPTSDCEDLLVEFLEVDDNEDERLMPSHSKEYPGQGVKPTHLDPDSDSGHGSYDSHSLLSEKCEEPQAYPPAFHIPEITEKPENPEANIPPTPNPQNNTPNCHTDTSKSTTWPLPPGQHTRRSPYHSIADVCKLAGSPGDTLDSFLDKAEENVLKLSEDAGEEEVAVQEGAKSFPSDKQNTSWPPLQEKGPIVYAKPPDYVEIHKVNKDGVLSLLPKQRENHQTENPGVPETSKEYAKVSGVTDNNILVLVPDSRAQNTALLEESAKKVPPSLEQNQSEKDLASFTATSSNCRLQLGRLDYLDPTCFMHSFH

B1: H1H6801P (antibody, human IgG1, V domains shown)
VH: QVQLQQSGPGLVKPSQTLSLTCVISGDSVSSNTAWNWVRQSPSRGLEWLGRTYYRSKWYNDYAVSVKSRITINPDTSKNQFSLLMNSVTPEDTAVYYCARVVRGLNYFDYWGQGTLVTVSS
VL: DIVMTQSPDSLAVSLGERATINCKSSQSVLYNSNNKNYLAWYQQKPGQPPKLLIYWSSSRESGVPDRFSGSGSGTDFTLTISGLQAEDVAIYYCQQYSTIPYTFGQGTKLEIK
Regarding B1, the FACS Cell Binding (Fold Above Background) (fold above background) stood at 56.

The values are drawn from patent US20150056222A1.
